For this assay, the target named is anthrax protective antigen, wild type PA83 (Bacillus anthracis) (UniProt P13423).

This is an account of results in patent US20210221874A1.

Sequence of anthrax protective antigen, wild type PA83 (Bacillus anthracis) (P13423 30-764): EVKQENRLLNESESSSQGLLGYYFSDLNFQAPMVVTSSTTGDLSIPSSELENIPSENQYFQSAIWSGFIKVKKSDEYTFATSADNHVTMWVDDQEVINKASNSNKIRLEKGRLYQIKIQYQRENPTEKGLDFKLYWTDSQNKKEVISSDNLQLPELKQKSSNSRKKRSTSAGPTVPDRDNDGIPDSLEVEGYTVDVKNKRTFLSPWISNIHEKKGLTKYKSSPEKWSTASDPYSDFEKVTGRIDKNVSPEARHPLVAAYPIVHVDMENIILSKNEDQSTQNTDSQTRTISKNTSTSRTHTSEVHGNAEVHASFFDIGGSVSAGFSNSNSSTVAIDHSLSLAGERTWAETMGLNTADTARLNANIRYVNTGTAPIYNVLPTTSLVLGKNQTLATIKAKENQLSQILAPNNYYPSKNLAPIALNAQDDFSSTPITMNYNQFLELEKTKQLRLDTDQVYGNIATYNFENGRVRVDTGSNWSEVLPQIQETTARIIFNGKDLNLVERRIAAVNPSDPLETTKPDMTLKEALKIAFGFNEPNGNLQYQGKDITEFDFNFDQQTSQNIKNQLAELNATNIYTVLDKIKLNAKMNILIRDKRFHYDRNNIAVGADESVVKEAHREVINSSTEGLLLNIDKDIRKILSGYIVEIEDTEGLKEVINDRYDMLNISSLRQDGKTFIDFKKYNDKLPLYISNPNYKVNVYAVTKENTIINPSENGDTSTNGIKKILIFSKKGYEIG

As for “neutralizing anti-PA mouse monoclonal antibody 14B7”, the IC50 (read off the curve) was found to be 10 nM.
